# Measured values reported in US6071709A, “Nerve growth factor/receptor complex” (The United States of America as represented by the …, priority 1992, dated 2000).
# Columns and labels:
# p140^prototrk [1] = assay: Affinity crosslinking of 125I-NGF to gp140trk with HSAB and immunoprecipitation; format: binding, rat; settings: 0.5 nM 125I-NGF, 2 hr at 4° C., PC12 and rtrk-3T3 cells
# Source text: FIG. 5 depicts the affinity crosslinking of NGF to gp140trk on PC12 cells and rtrk 3T3 cells. trk receptors were labeled by cross-linking of ^125 I-NGF to cultured cells using HSAB. The cell lines analyzed were PC12 cells (lanes 1-4), rtrk 3T3 cells (lanes 5-9), NIH-3T3 cells (lanes 10-11) and A875 human […] cells (lanes 13-15). Lysates from cells were immunoprecipitated with anti-NGF (lanes 1, 5, 9-14), gp140trk antibody 7-4 which is another trk antibody generated in bacteria against the gp70trk oncogene (7-4), (Martin-Zanca et al., (1989)) (lanes 2 and 6), or gp140trk antibody 43-4 in the absence (lanes […] and 15) or presence (lanes 4 and 8) of 10 μg/ml competing trk peptide. Crosslinking was performed in the presence of excess unlabeled NGF ([…]) in lanes 9, 11, and 14. The antibody 7-4 immunoprecipitates 3-5 fold less gp140 trk than does antibody 43-4. […]
# ^125 I-NGF was prepared by lactoperoxidase treatment to specific activities of 2500-3500 cpm/fmole. […] After washing in 50 mM lysine in phosphate buffered saline, cells were lysed in buffer containing 1% NP40 and the lysates immunoprecipitated and analyzed on 7.5% SDS-PAGE as described (Kaplan et al., (1990)).
# To determine if NGF was capable of binding to p140^prototrk, several cell lines were analyzed for the ability of trk-specific antisera to precipitate receptor-ligand complexes in affinity crosslinking experiments (FIG. 5). […]
# gp140^prototrk = target: T1, gp140^prototrk (Rattus norvegicus, UniProt P35739); settings: PC12 cells, after NGF administration (Kaplan et al., 1991); cited from earlier work
# T1 construct: tyrosine phosphorylation in response to NGF addition to PC12 cells; endogenous in cells; host or cells: PC12 cells
# p140^prototrk [2] = target: p140^prototrk (Rattus norvegicus, UniProt P35739); assay: NGF-dependent trk tyrosine phosphorylation in NR18 cells (PC12 derivative); format: cell-based; set-up: the phosphorylation state of the trk receptor on the NR18 cell line; endogenous in cells; host or cells: NR18 cells; settings: 100 ng/ml NGF for 5 min
# Source text: FIGS. 4A-B show NGF-dependent tyrosine phosphorylation of gp140trk in the human neuroblastoma cell lines LA-N-5, SY5Y, and dorsal root ganglia from mouse embryos. FIG. 4A, gp140trk was immunoprecipitated from untreated (-) or NGF treated (+) LA-N-5 cells (K. H. Sonnenfeld and D. N. Ishii, J. Neurosci. Res. 8:375-391 (1982)), SY5Y cells (K. H. Sonnenfeld and D. N. Ishii, (1982)), NR18 cells (M. A. Bothwell et al., Cell 21:857-866 (1980)), or PC12 cells. Immunoprecipitates were probed with P-tyr antibodies. The differences in trk protein mobilities are due to differences in glycosylation. FIG. 4B, Tyrosine phosphorylation of gp140trk in DRGs from 13.5 day or 14.5 day embryonic mice. DRGs were maintained in 100 ng/ml NGF for ≥10 min prior to lysis and immunoprecipitation with trk antibodies. trk immunoprecipitates were probed with P-tyr antibody. Tyrosine phosphorylated gp140trk from NGF-treated (+) PC12 cells or untreated (-) PC12 cells is shown for comparison. Samples were normalized for cell protein. Molecular weight markers in kDa are indicated.
# Cell lines were treated with 100 ng/ml NGF for 5 min and gp140trk immunoprecipitated as in FIG. 1. DRGs were prepared by dissection for 13.5 or 14.5 day mouse embryos. […] Lysates were immunoprecipitated with trk antibody and the trk proteins were analyzed by antiphosphotyrosine immunoblots. […]
# p140^prototrk (Rattus norvegicus, UniProt P35739), sequence (P35739 33-799): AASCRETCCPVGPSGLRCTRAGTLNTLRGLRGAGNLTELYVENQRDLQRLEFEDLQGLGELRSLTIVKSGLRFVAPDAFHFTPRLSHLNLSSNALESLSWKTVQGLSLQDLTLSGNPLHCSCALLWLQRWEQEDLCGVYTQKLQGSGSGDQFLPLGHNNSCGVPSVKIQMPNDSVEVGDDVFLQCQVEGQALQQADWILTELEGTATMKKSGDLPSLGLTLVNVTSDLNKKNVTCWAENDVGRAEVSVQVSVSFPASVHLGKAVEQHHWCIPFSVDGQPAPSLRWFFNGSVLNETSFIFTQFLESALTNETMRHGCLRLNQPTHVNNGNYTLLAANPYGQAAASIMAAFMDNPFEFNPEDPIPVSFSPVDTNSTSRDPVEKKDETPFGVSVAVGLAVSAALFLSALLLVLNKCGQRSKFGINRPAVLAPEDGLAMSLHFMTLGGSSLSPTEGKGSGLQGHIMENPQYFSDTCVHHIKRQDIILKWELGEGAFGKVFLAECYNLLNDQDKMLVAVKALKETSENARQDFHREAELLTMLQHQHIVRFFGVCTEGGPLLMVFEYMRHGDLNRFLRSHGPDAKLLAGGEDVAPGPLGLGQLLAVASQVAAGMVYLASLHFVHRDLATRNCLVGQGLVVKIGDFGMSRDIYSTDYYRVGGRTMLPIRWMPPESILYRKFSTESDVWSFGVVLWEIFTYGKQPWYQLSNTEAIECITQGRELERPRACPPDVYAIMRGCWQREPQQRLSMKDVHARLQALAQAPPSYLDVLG
# T1 sequence (P35739 33-799): as above
# p140^prototrk, sequence (P35739 148-395 limits assumed): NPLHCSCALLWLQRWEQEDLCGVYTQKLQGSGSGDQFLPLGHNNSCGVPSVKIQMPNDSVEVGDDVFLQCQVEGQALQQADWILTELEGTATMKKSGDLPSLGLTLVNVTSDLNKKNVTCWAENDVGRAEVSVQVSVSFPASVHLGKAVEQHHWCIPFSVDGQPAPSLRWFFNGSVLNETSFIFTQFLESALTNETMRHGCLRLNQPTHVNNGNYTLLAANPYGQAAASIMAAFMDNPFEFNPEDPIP
substance,measurement,setting,value
"NGF: neurotrophic polypeptide factor, nerve growth factor; ligand of trk proto-oncogene receptor",binding to p140^prototrk (160 kDa crosslinked species),p140^prototrk [1],binds
same,time to appearance of trk tyrosine phosphorylation,gp140^prototrk,1 min
same,p140^prototrk phosphorylation in response to NGF,p140^prototrk [2],no phosphorylation
